These results are taken from patent US20250382602.

Positions count from the first letter of the chain named.

What all share (details): nanopore translocation, FLO-MIN112; background mutations not given
Series [1] concerns the target T1, Dda 1993 351Q 351Q (Enterobacteria phage T4) (UniProt P32270).
T1 sequence: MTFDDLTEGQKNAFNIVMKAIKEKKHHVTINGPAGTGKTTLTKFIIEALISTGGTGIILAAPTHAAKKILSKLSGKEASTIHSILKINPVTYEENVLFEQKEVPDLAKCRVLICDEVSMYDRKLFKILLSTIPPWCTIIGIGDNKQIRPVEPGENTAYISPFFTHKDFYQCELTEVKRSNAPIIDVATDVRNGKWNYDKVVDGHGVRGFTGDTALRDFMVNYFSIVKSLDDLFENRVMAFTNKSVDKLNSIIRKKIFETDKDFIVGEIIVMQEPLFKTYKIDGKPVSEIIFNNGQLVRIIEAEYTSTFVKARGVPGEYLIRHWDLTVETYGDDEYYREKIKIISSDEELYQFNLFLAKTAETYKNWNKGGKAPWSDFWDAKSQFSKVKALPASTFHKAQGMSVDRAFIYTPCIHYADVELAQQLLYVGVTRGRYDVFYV

The target of series [2] is T2, Dda 1993 361Q 361Q (Enterobacteria phage T4) (UniProt P32270).
T2 sequence: T1 sequence with Q351K, E361Q

The target in series [3] is T3, Dda 1993 354Q 354Q (Enterobacteria phage T4) (UniProt P32270).
T3 sequence: T1 sequence with Q351K, L354Q

Series [4] has as its target T4, Dda 1993 Y350I Y350I (Enterobacteria phage T4) (UniProt P32270).
T4 sequence: T1 sequence with Y350I, Q351K

Series [5] deals with T5, Dda 1993 361I 361I (Enterobacteria phage T4) (UniProt P32270).
T5 sequence: T1 sequence with Q351K, E361I

Series [6] concerns the target T6, Dda 1993 K358A K358A (Enterobacteria phage T4) (UniProt P32270).
T6 sequence: T1 sequence with Q351K, K358A

With “barcoded 3.6 kb DNA analyte ligated to sequencing Y adaptor”, the activity (bps speed delta vs control) was -5.61 in series [1]; 13.8 in series [2]; 0.09 in series [3]; 2.22 in series [4]; 21.6 in series [5]; -0.99 in series [6].
